Laboratory results: PMC6854716, “Redesigning N-glycosylation sites in a GH3 β-xylosidase improves the enzymatic efficiency” (Biotechnology for Biofuels, 2019)

What was measured:
[1] = system: O=[N+]([O-])c1ccc(O[C@@H]2OC[C@@H](O)[C@H](O)[C@H]2O)cc1; test: purified protein; format: biochemical, Aspergillus nidulans; conditions: 0.05 M ammonium acetate pH 5.0, 60 °C, 1–20 mM substrate
purified protein = substrate: O=[N+]([O-])c1ccc(O[C@@H]2OC[C@@H](O)[C@H](O)[C@H]2O)cc1; test: purified protein; format: biochemical, Aspergillus nidulans; conditions: 0.05 M ammonium acetate pH 5.0, 60 °C, 1–20 mM substrate; remark: listed apart in the source
[2] = Michaelis-Menten kinetics, purified enzyme, pH 5.0, 60 °C; conditions: glycan lost; control: BxlBwt
[3] = CD thermal melt, 20-100 °C; conditions: glycan lost; control: BxlBwt
[4] = far-UV CD secondary structure; conditions: glycan lost; control: BxlBwt
[5] = western blot of crude extracellular extract, polyclonal anti-BxlB; conditions: glycan lost; control: BxlBwt
[6] = ρNP-X activity of intracellular extract; conditions: glycan lost; control: BxlBwt

In the case of “BxlB^wt (GH3 β-xylosidase BxlB) (Aspergillus nidulans FGSC A4; N340Q/N408Q/N419Q/N458Q/N621Q/N760Q)”, the Km [1] is reported as 2530 ± 230 µM, the Vmax [1] is reported as 9.49 µmol/min/mg and the kcat [1] is reported as 13 s⁻¹. For the same molecule, the kcat/Km [1] was 5130 M⁻¹ s⁻¹.

B1: BxlB^wt (GH3 β-xylosidase BxlB) (Aspergillus nidulans FGSC A4) (protein)
chain: NYPDCTTGPLSELPICDTSLSPLERAKSLVSALTLEEKINNTGHEAAGSSRLGLPAYNWWNEALHGVAEKHGVSFEESGDFSYATSFPAPIVLGAAFNDALIRRVAEIISTEARAFSNSDHAGIDYWTPNVNPFKDPRWGRGQETPGEDPLHCSRYVKEFVGGLQGDDPEKPKVVATCKHLAAYDLEEWGGVSRFEFDAKVSAVDLLEYYLPPFKTCAVDASVGAFMCSYNALNGVPACADRYLLQTVLREHWGWEGPGHWVTGDCGAVERIQTYHHYVESGPEAAAAALNAGVDLDCGTWLPSYLGEAERQGLISNETLDAALTRLYTSLVQLGYFDPAEGQPLRSLGWDDVATSEAEELAKTVAIQGTVLLKNIDWTLPLKANGTLALIGPFINFTTELQSNYAGPAKHIPTMIEAAERLGYNVLTAPGTEVNSTSTDGFDDALAIAAEADALIFFGGIDNTVEEESLDRTRIDWPGNQEELILELAELGRPLTVVQFGGGQVDDSALLASAGVGAIVWAGYPSQAGGAGVFDVLTGKAAPAGRLPITQYPKSYVDEVPMTDMNLQPGTDNPGRTYRWYEDAVLPFGFGLHYTTFNVSWAKKAFGPYDAATLARGKNPSSNIVDTFSLAVTNTGDVASDYVALVFASAPELGAQPAPIKTLVGYSRASLIKPGETRKVDVEVTVAPLTRATEDGRVVLYPGEYTLLVDVNDEYPTAKFEIKGDVQVLEKFPLSGNDSD
notes: homologous secreted expression in A. nidulans A773 (pEXPYR, glaA promoter, A. niger glucoamylase signal peptide); purified by DEAE and Superdex 200; N-glycosylated at N63, N340, N408, N419, N458, N621, N760
In the case of B1, the Km (purified protein) is reported as 2060 ± 130 µM, the Vmax (purified protein) is reported as 9.55 µmol/min/mg and the kcat (purified protein) is reported as 13.1 s⁻¹. The kcat/Km (purified protein) was 6340 M⁻¹ s⁻¹.

B2: BxlB (GH3 β-xylosidase): BxlBN1;5;7 (protein)
parent chain: MAVFKSWNLALLSSLFIPALCQSNYPDCTTGPLSELPICDTSLSPLERAKSLVSALTLEEKINNTGHEAAGSSRLGLPAYNWWNEALHGVAEKHGVSFEESGDFSYATSFPAPIVLGAAFNDALIRRVAEIISTEARAFSNSDHAGIDYWTPNVNPFKDPRWGRGQETPGEDPLHCSRYVKEFVGGLQGDDPEKPKVVATCKHLAAYDLEEWGGVSRFEFDAKVSAVDLLEYYLPPFKTCAVDASVGAFMCSYNALNGVPACADRYLLQTVLREHWGWEGPGHWVTGDCGAVERIQTYHHYVESGPEAAAAALNAGVDLDCGTWLPSYLGEAERQGLISNETLDAALTRLYTSLVQLGYFDPAEGQPLRSLGWDDVATSEAEELAKTVAIQGTVLLKNIDWTLPLKANGTLALIGPFINFTTELQSNYAGPAKHIPTMIEAAERLGYNVLTAPGTEVNSTSTDGFDDALAIAAEADALIFFGGIDNTVEEESLDRTRIDWPGNQEELILELAELGRPLTVVQFGGGQVDDSALLASAGVGAIVWAGYPSQAGGAGVFDVLTGKAAPAGRLPITQYPKSYVDEVPMTDMNLQPGTDNPGRTYRWYEDAVLPFGFGLHYTTFNVSWAKKAFGPYDAATLARGKNPSSNIVDTFSLAVTNTGDVASDYVALVFASAPELGAQPAPIKTLVGYSRASLIKPGETRKVDVEVTVAPLTRATEDGRVVLYPGEYTLLVDVNDEYPTAKFEIKGDVQVLEKFPLSGNDSD
For B2, the “enzymatic_activity, kcat_Km” value [2] was “increases, 9.51 vs 6.34, 50% higher catalytic efficiency as compared to the wild type”, the “stability_or_folding, Tm” value [3] was “decreases, 61.6 vs 63.8” and the structure_or_conformation [4] was “no change”. The expression_or_secretion [5] was “decreases” and the “enzymatic_activity, fold_change” value [6] was “increases”.

B3: BxlB (GH3 β-xylosidase): BxlBN5 (protein)
parent chain: MAVFKSWNLALLSSLFIPALCQSNYPDCTTGPLSELPICDTSLSPLERAKSLVSALTLEEKINNTGHEAAGSSRLGLPAYNWWNEALHGVAEKHGVSFEESGDFSYATSFPAPIVLGAAFNDALIRRVAEIISTEARAFSNSDHAGIDYWTPNVNPFKDPRWGRGQETPGEDPLHCSRYVKEFVGGLQGDDPEKPKVVATCKHLAAYDLEEWGGVSRFEFDAKVSAVDLLEYYLPPFKTCAVDASVGAFMCSYNALNGVPACADRYLLQTVLREHWGWEGPGHWVTGDCGAVERIQTYHHYVESGPEAAAAALNAGVDLDCGTWLPSYLGEAERQGLISNETLDAALTRLYTSLVQLGYFDPAEGQPLRSLGWDDVATSEAEELAKTVAIQGTVLLKNIDWTLPLKANGTLALIGPFINFTTELQSNYAGPAKHIPTMIEAAERLGYNVLTAPGTEVNSTSTDGFDDALAIAAEADALIFFGGIDNTVEEESLDRTRIDWPGNQEELILELAELGRPLTVVQFGGGQVDDSALLASAGVGAIVWAGYPSQAGGAGVFDVLTGKAAPAGRLPITQYPKSYVDEVPMTDMNLQPGTDNPGRTYRWYEDAVLPFGFGLHYTTFNVSWAKKAFGPYDAATLARGKNPSSNIVDTFSLAVTNTGDVASDYVALVFASAPELGAQPAPIKTLVGYSRASLIKPGETRKVDVEVTVAPLTRATEDGRVVLYPGEYTLLVDVNDEYPTAKFEIKGDVQVLEKFPLSGNDSD
With B3 the “enzymatic_activity, kcat_Km” value [2] was “decreases, 0.61 vs 6.34”, the “stability_or_folding, Tm” value [3] was “decreases” and the structure_or_conformation [4] was “no change”. For the same molecule, the expression_or_secretion [5] was “decreases”.

B4: BxlB (GH3 β-xylosidase): BxlBN1 (protein)
parent chain: MAVFKSWNLALLSSLFIPALCQSNYPDCTTGPLSELPICDTSLSPLERAKSLVSALTLEEKINNTGHEAAGSSRLGLPAYNWWNEALHGVAEKHGVSFEESGDFSYATSFPAPIVLGAAFNDALIRRVAEIISTEARAFSNSDHAGIDYWTPNVNPFKDPRWGRGQETPGEDPLHCSRYVKEFVGGLQGDDPEKPKVVATCKHLAAYDLEEWGGVSRFEFDAKVSAVDLLEYYLPPFKTCAVDASVGAFMCSYNALNGVPACADRYLLQTVLREHWGWEGPGHWVTGDCGAVERIQTYHHYVESGPEAAAAALNAGVDLDCGTWLPSYLGEAERQGLISNETLDAALTRLYTSLVQLGYFDPAEGQPLRSLGWDDVATSEAEELAKTVAIQGTVLLKNIDWTLPLKANGTLALIGPFINFTTELQSNYAGPAKHIPTMIEAAERLGYNVLTAPGTEVNSTSTDGFDDALAIAAEADALIFFGGIDNTVEEESLDRTRIDWPGNQEELILELAELGRPLTVVQFGGGQVDDSALLASAGVGAIVWAGYPSQAGGAGVFDVLTGKAAPAGRLPITQYPKSYVDEVPMTDMNLQPGTDNPGRTYRWYEDAVLPFGFGLHYTTFNVSWAKKAFGPYDAATLARGKNPSSNIVDTFSLAVTNTGDVASDYVALVFASAPELGAQPAPIKTLVGYSRASLIKPGETRKVDVEVTVAPLTRATEDGRVVLYPGEYTLLVDVNDEYPTAKFEIKGDVQVLEKFPLSGNDSD
With B4 the “enzymatic_activity, kcat_Km” value [2] was “decreases, 5.13 vs 6.34”, the “stability_or_folding, Tm” value [3] was “decreases” and the structure_or_conformation [4] was “no change”. The expression_or_secretion [5] was “decreases”.
